Reference: article PMC4346919, “Structural Analysis of the Complex between Penta-EF-Hand ALG-2 Protein and Sec31A Peptide Reveals a Novel Target Recognition Mechanism of ALG-2” (International Journal of Molecular Sciences, 2015)

T1: GST-8 aa-fusion of PLSCR3 (43–50) (UniProt Q9NRY6 43-50)
T1 construct: PLSCR3 residues 43-50; also called PLSCR3 8 aa, encoding 43–50
T1 chain (looked up): PAPAPGFA

T2: GST-fused Sec31A 8-residue peptide P4S (human, P4S)
T2 construct: Sec31A residues 837-844; numbers count on: the 8-residue peptide (N1 = residue 837 of Sec31A)
T2 chain: NPPSPGFI

B1: biotin-labeled ALG-2 (natural protein, human, UniProt O75340 1-191, looked up)
chain: MAAYSYRPGPGAGPGPAAGAALPDQSFLWNVFQRVDKDRSGVISDTELQQALSNGTWTPFNPVTVRSIISMFDRENKAGVNFSEFTGVWKYITDWQNVFRTYDRDNSGMIDKNELKQALSGFGYRLSDQFHDILIRKFDRQGRGQIAFDDFIQGCIVLQRLTDIFRRYDTDQDGWIQVSYEQYLSMVFSIV
modifications: biotin-labeled
notes: ALG-2 (PDCD6), probe of the far-Western blots; also called bio-ALG-2

Assays:
Experiment in all cases: far-Western, overlay or dot blot; purified GST-fused peptides resolved by SDS-PAGE, transferred to PVDF membranes and probed with biotin-labeled ALG-2; chemiluminescence, quantified with ImageJ
Conditions in all cases: both partners purified
[1] = target: B1
[2] = target: T1, GST-8 aa-fusion of PLSCR3 (43–50)
[3] = target: T2, GST-fused Sec31A 8-residue peptide P4S

Row | binding result [1] | FW signal relative to that for Sec31A [2] | relative binding activity (percent of WT) [3] | Binder
1 | binds |  |  | NPPPLGFI (Sec31A residues 837-844; numbers count on: the 8-residue peptide (N1 = residue 837 of Sec31A)) [GST-fused Sec31A 8-residue peptide P5L]
2 | binds |  |  | NPPPPGFIMHGNV (peptide, UniProt O94979 837-849, looked up, Sec31A residues 837-849; also called Sec31A 13 aa, encoding 837–849) [GST-fused Sec31A peptide, 13 aa (837–849)]
3 |  | < 0.0625 of the signal for Sec31A | ~20 % of WT | B1
4 | binds |  |  | PPPGFIMHGNVNP (peptide, UniProt O94979 839-851, looked up, also called Sec31A 13 aa, encoding 839–851) [GST-fused Sec31A peptide, 13 aa (839–851)]
5 | binds |  |  | NAPPPGFI (Sec31A residues 837-844; numbers count on: the 8-residue peptide (N1 = residue 837 of Sec31A)) [GST-fused Sec31A 8-residue peptide P2A]
6 | binds |  |  | NPPAPGFI (Sec31A residues 837-844; numbers count on: the 8-residue peptide (N1 = residue 837 of Sec31A)) [GST-fused Sec31A 8-residue peptide P4A]
7 | binds |  |  | NPPPAGFI (Sec31A residues 837-844; numbers count on: the 8-residue peptide (N1 = residue 837 of Sec31A)) [GST-fused Sec31A 8-residue peptide P5A]
